# Laboratory results published in patent US20030049259A1.
# Biological target: E-cadherin (human) (UniProt P12830)
# Assay: cell-based or functional assay
# Chain of UniProt P12830 (P12830 155-882): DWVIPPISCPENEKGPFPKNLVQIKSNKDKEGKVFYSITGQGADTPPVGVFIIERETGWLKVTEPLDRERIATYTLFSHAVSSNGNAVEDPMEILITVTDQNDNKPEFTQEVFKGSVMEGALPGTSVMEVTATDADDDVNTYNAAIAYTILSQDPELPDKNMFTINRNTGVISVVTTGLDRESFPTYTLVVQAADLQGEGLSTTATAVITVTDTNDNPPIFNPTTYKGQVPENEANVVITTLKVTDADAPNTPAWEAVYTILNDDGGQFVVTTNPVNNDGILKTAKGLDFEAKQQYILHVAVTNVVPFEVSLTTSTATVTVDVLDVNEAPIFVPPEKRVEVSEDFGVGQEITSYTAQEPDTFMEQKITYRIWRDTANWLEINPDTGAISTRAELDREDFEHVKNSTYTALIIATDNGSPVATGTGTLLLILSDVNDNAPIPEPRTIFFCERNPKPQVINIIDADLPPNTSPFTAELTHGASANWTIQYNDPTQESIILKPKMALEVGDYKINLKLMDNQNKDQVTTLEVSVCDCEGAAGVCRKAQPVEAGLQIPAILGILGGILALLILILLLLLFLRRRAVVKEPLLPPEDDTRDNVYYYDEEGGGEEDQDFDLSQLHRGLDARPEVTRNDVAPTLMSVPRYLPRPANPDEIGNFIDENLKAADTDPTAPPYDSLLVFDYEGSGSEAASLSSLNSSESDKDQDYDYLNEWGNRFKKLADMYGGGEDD
substance,measurement,value
"E4.6 (mouse anti-human E-cadherin, IgG1) (antibody)","blocking of ilEL binding to 16E6.A5 monolayers in 1 mM Ca2+, Mg2+ and Mn2+ (FIG. 3A)",55%
same,blocking of ilEL binding to 16E6.A5 monolayers in the absence of Ca2+ and Mn2+ (FIG. 3B),0%
